This is an account of results in article PMC3394726 (PLoS ONE, 2012).

This assay concerns the target T1, human complement C1q (human, UniProt P02745;P02746;P02747).
T1 construct: source: purified from human plasma; endogenous, normal human serum (NHS); copies: + +
The experiment in a line: ELISA; SMSB3 or SMSB4 coated at 10 µg/ml; serial dilutions of normal human serum (0-100%) for 10, 20, 40 or 60 min at 37°C; bound complement factors detected with specific antibodies. To be noted: one partner purified.

T1 sequence (P02745 23-245, chain 1 of 3): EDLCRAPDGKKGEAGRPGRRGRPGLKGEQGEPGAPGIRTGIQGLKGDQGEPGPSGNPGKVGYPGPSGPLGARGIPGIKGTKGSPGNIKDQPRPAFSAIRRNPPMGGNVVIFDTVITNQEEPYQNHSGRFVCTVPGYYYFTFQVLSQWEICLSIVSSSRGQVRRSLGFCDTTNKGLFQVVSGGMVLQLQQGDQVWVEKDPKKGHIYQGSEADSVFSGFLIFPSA
T1 sequence (P02746 28-253, chain 2 of 3): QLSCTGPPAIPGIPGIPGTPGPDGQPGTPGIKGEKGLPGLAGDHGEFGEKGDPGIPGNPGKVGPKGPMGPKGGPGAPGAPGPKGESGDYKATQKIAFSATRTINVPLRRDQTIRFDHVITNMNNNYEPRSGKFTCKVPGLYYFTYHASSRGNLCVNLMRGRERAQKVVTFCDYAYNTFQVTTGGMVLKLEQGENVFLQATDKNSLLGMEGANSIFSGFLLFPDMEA
T1 sequence (P02747 29-245, chain 3 of 3): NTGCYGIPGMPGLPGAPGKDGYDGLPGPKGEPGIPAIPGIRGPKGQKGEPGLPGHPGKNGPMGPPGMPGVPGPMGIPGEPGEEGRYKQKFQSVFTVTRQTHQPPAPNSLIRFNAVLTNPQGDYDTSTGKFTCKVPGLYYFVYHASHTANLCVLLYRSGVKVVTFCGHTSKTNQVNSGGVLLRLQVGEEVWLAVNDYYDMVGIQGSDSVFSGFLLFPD

B1: scabies mite serpin SMSB4, wild type (natural protein)
chain: KPQHHSQSHQQPVLASDPNEDPLKALNLLQQQKQFTEHFFQQNNEKLNLLGGQEIIKCFDVNFTSNVLNNIDHISKIMIDGSRHFGLRLFQILNLFEPKTSSPGLVYSPISVWSTLILTYLGSDGVTEQELSQKLKLNQLPKPLVALAYRSLKWWKDFNVLKLMQNHTDATQVCSANKLYINDHLLVKDCFRTIFGDEIEMKSFSSRPQESLSEINDWVRVQTQGHIPNLLGPESISSNTNIVMINAVYFKSFWAQQFDSSKTKKQRFYVSMNEELEADMMTMDSVSVMYGISEELRASAVEIPYSNPDYSFLIILPDITRSLDSMIRTLTWNKIQLLLQNMYDDEVKLMIPKFRSEQEFELAGPLFSLGIKKLFDPRYANLNSIFMNSNNSRVALDSVIHKSFISVDEEGTEAAAATAVIFARSGRPAFPTEFIADRPFLYIIRDVSSNQLLFIGTVRRPYASQAIVA
notes: also called SMB4; SMSB4/wt
On to B1, for which the binding result was “binds”.
